B1: P2RY14 (parent)
chain: KKIFKSHLKSSRNSTSVKKKSSRN

Variants of: B1
Assay: protein stability index of a GFP-peptide fusion (GPS, HEK-293T) (PSI 1-6); higher = more stable
Details: c terminus: a fixed tail appended
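Note: lentivirally expressed fusions sorted by FACS into six bins by GFP to DsRed ratio, PSI derived from sequencing read proportions per bin multiplied by bin number.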

Protein stability index of substitutions, site by site:
H7: L 3.7 | N 4 | Y 3.38 | W 3.3 | Q 3.67 | P 3.74 | S 4.15 | G 4.27 | V 3.93 | K 4.39 | E 4.41 | R 4.28 | D 4.36 | F 3.76 | A 3.79 | M 3.79 | I 3.72 | T 4.41 | C 4.05
K18: Y 3.66 | L 3.86 | V 3.74 | E 3.98 | T 4.17 | D 3.98 | M 4.1 | P 4.29 | I 3.7 | F 3.54 | N 4.27 | A 3.8 | W 2.98 | C 3.34 | H 4.07 | Q 3.67 | R 3.88 | S 4.21 | G 3.99
T15: M 4.01 | S 4.16 | K 3.84 | Y 3.6 | W 3.46 | N 4.45 | C 3.63 | Q 4.09 | G 4.31 | R 4.05 | H 4.01 | V 3.55 | P 4.28 | F 3.52 | E 4.35 | A 4.27 | I 4.04 | D 4.28 | L 3.98
K19: R 4.27 | G 4.02 | P 3.34 | C 3.34 | W 2.96 | D 3.6 | N 3.98 | M 3.92 | V 4.31 | E 3.98 | T 3.62 | I 3.59 | A 3.98 | S 3.9 | Q 4 | H 3.99 | L 3.5 | F 3.13 | Y 3.17
S11: G 4.26 | A 3.93 | W 3.36 | N 3.96 | V 4.31 | F 3.69 | Q 4.31 | H 4.67 | M 3.62 | E 4.35 | L 4.12 | I 3.98 | R 4.44 | T 4.22 | K 3.89 | Y 3.37 | C 3.93 | D 4.33 | P 4.3
K20: N 3.86 | W 3.15 | F 2.75 | G 3.43 | S 4.07 | R 4.39 | L 3.42 | Y 3.95 | A 3.64 | T 3.62 | H 3.62 | V 3.81 | D 3.89 | P 3.83 | I 3.5 | M 3.48 | C 3.67 | Q 4.04 | E 3.75
K9: I 3.7 | G 4.01 | M 4 | V 3.39 | Q 4.04 | C 4.37 | R 4.27 | P 4.47 | T 3.98 | N 4.5 | D 4.05 | H 4.41 | E 4.51 | S 3.87 | Y 3.67 | L 4.05 | W 3.21 | A 4.07 | F 3.57
S16: K 4.07 | E 4.13 | P 4.26 | M 4.35 | A 4.16 | D 4.08 | V 3.82 | W 3.69 | I 3.84 | H 4.45 | Y 4.28 | Q 4.48 | C 3.38 | G 4.1 | R 4.22 | F 3.57 | N 4.26 | T 4.22 | L 4.14
S22: W 3.33 | M 4.19 | T 4.19 | Q 4.49 | F 2.92 | L 3.48 | D 4 | G 4.32 | E 4.06 | K 4.43 | H 4.64 | A 4.01 | V 4.33 | R 4.13 | I 5.05 | P 4.21 | C 4.07 | Y 3.56 | N 4.2
L8: C 4.39 | I 4.16 | Q 3.49 | N 4.31 | W 3.95 | F 4.04 | M 4.11 | R 4.14 | E 4.43 | T 4.3 | H 4.05 | K 4.29 | G 4.49 | A 4.56 | S 5.01 | P 4.33 | Y 3.59 | V 4.14 | D 4.58
S14: I 4.14 | L 3.88 | V 3.84 | N 4.44 | A 3.5 | T 4.33 | D 4.14 | E 4.35 | H 4.35 | K 4.07 | Q 3.69 | P 4.43 | W 3.44 | G 4.22 | M 3.98 | R 4.36 | Y 4.1 | C 4.31 | F 3.84
K5: W 3.45 | Y 3.48 | P 4.18 | S 4.2 | V 3.93 | Q 4.27 | N 4.33 | M 3.95 | R 3.67 | T 4.06
S21: C 3.84 | L 3.77 | P 3.72 | N 4.17 | W 3.3 | G 3.8 | Q 3.88 | V 4.14 | E 3.8 | K 4.48 | R 4.27 | Y 3.38 | M 3.92 | F 3.73 | T 3.8 | D 4.42 | A 3.98 | H 4.22 | I 3.98
R23: A 4.05
S10: R 4.18 | M 4.01 | W 3.46 | D 4.41 | Y 3.54 | L 4.02 | T 4.17 | P 4.24 | E 4 | I 3.59 | F 3.38 | V 3.81 | Q 3.83 | H 4.14 | G 3.81 | A 4.08 | N 4.33 | C 4.03 | K 4.15
N13: T 4.5 | A 4.12 | H 3.52 | M 3.64 | S 4.89 | D 3.68 | F 3.77 | V 4.22 | P 3.45 | C 3.74 | W 3.41 | E 3.55 | R 4.38 | I 4.15 | Q 4.2 | K 3.95 | G 4.11 | Y 3.6 | L 3.3
R12: S 3.94 | Q 4.16 | P 4.15 | A 4.17 | E 4.08 | C 3.6 | H 3.93 | V 4.45 | L 4.11 | Y 3.39 | M 4.03 | F 3.83 | N 4.17 | W 3.74 | D 4.43 | I 3.8 | K 4.03 | G 3.87 | T 4.37
S6: C 4.06 | P 3.69 | D 4.62 | F 3.34 | R 4.49 | E 4.36 | M 3.82 | L 3.18 | W 3.26 | A 3.68 | T 4.11 | I 3.5 | K 4.33 | V 3.79 | G 4.18 | H 3.9 | Q 4.07 | Y 3.34 | N 4.57
V17: T 4.41 | S 4.03 | F 3.97 | R 4.49 | Y 3.99 | D 4.25 | I 3.59 | Q 4.06 | E 3.99 | A 4.29 | W 3.6 | P 4.09 | N 4.21 | G 3.73 | H 4.1 | L 4.02 | M 4.12 | C 4.17 | K 4.02

Source: the supplement of paper PMC10567573
